# Literature values in PMC3091359.
# Biological target: (Pro)renin (Homo sapiens) (UniProt P00797)
# UniProt P00797, sequence (P00797 67-406): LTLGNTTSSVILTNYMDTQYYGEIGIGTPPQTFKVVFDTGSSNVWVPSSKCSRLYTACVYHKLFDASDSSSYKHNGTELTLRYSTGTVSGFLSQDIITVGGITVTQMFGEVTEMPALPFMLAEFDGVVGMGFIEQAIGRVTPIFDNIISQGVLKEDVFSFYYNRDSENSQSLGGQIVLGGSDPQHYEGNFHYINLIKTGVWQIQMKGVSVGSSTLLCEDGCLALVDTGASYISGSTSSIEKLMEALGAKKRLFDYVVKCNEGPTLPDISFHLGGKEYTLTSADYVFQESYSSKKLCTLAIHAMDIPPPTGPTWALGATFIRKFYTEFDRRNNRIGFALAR
substance,measurement,value
(Pro)renin receptor (from UniProt Q6AXS4),Kd,3.7 nM
